In paper PMC3334467 (Immunity, 2012) one finds IC50 data, which are given here for one molecule.

For this assay, the target named is T1, MBP-AIM2 HIN domain (human, UniProt O14862 144-343).
T1 sequence (looked up): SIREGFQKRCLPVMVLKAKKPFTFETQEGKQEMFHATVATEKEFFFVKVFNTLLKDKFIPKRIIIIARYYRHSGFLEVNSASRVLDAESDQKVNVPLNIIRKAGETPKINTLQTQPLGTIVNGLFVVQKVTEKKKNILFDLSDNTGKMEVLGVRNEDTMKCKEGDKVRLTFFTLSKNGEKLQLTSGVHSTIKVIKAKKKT
Nature of the assay: fluorescence polarisation. (Polarisation of emitted light reports the rotation of a fluorescent probe.)

B1: AIM2 PYD domain, wild type (residues 1–107), as used in the FP inhibition assay (domain or fragment, human, UniProt O14862 1-107, looked up)
chain: MESKYKEILLLTGLDNITDEELDRFKFFLSDEFNIATGKLHTANRIQVATLMIQNAGAVSAVMKTIRIFQKLNYMLLAKRLQEEKEKVDKQYKSVTKPKPLSQAEMS
B1 displayed an IC50 of 11 µM.

The IC50 is the point on the concentration scale where inhibition reaches its midpoint. The low end stands for higher potency, the high end for lower potency.
